Measured values published in patent publication US20250250335A1 (SHENGHE CHINA BIOPHARMACEUTICAL, published 2025).
Read-outs that look alike come from different tables or passages of the source.

T1: mouse CEACAM5 (mouse, UniProt Q3UKK2 35-947, limits assumed)
T1 sequence (looked up): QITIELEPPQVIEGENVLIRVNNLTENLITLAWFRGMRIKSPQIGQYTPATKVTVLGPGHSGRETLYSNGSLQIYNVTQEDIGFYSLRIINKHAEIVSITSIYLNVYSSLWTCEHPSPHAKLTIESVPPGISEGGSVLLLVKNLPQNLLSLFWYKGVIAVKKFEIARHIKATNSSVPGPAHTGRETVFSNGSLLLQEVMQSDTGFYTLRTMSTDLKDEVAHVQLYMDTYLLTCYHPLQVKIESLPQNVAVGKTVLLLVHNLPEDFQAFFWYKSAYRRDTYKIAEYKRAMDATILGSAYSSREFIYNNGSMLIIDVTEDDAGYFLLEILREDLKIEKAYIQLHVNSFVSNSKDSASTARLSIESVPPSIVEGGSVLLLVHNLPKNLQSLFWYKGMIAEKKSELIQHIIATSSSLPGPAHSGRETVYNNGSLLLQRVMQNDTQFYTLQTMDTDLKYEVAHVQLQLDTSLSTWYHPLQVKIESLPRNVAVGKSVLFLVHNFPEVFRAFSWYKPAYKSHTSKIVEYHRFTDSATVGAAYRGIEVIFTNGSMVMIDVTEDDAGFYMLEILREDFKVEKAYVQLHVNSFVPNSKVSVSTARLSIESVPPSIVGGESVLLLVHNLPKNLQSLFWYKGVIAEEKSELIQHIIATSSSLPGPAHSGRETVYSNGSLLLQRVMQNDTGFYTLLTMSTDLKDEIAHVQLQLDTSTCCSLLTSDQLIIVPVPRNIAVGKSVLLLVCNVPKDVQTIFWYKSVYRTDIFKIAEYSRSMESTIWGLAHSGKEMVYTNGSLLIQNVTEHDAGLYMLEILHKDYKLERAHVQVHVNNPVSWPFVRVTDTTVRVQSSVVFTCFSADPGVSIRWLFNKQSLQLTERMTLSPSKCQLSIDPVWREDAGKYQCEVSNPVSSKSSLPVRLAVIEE

T2: human CEACAM5-his (ACRO CE5-H5226) (human, UniProt P06731 35-685)
T2 construct: Bought protein; not shown: His tag
T2 sequence (looked up): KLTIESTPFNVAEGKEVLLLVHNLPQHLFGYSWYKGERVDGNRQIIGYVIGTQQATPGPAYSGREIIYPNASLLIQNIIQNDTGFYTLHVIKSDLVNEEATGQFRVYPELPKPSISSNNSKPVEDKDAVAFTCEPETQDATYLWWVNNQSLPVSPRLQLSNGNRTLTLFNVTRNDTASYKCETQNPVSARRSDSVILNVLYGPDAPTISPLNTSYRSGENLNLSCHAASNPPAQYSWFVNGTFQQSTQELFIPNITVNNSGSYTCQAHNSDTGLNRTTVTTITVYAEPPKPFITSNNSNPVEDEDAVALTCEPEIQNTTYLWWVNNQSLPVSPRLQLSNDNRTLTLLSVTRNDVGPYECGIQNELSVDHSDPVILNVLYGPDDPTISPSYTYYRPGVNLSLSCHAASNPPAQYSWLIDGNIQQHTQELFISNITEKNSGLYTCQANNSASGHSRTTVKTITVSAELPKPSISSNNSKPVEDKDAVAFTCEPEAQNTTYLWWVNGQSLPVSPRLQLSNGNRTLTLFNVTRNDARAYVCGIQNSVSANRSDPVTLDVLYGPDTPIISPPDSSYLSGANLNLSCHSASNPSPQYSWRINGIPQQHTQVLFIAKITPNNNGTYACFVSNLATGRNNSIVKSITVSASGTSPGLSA

T3: human CEACAM6-his (ACRO CE6-H5223) (human, UniProt P40199 35-320)
T3 construct: Bought protein; not shown: His tag
T3 sequence (looked up): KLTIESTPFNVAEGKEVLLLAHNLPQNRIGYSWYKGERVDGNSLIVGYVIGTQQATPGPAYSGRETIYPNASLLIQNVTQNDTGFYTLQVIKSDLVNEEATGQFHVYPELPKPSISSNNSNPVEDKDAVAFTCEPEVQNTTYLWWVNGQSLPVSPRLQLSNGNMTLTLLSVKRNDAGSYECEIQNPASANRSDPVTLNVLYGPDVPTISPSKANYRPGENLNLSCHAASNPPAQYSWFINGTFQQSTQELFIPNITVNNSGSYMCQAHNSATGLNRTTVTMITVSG

T4: CEACAM6 on the surface of the tumor cells (HPAFII cells) (UniProt P40199 35-320)
T4 construct: whole, on cells
T4 sequence (looked up): T3 sequence (looked up)

T5: CEACAM5 on the surface of the tumor cells (HPAFII cells) (UniProt P06731 35-685)
T5 construct: whole, on cells
T5 sequence (looked up): T2 sequence (looked up)

B1: Antibody 1 (antibody, V domains shown)
VH: QVQLKQSGAELVRPGASVKLSCKTSGYIFTSYWIHWVKQRSGQGLEWIARIYPGTGSTYYNEKFKGKATLTADKSSSTAYMQLSSLKSEDSAVYFCARSGFPLTTVPLDYWGQGTTLTVSS
VL: DVQITQSPSYLAASPGETITINCRASKSISKYLAWYQEKPGKTNKLLIYSGSTLQSGIPSRFSGSGSGTDFTLTISSLEPEDFAMYYCQQHNEYPFTFGSGTKLEIK
notes: Mouse-derived hybridoma antibody; also called mouse-derived antibody 1
B2: NEO-201 antibody (msIgG2a subtype) (antibody, V domains shown)
VH: QVQLVQSGAEVKKPGASVKVSCKASGYTFTDYAMHWVRQAPGQRLEWMGLISTYSGDTKYNQNFQGRVTMTVDKSASTAYMELSSLRSEDTAVYYCARGDYSGSRYWFAYWGQGTLVTVSS
VL: DIQMTQSPSSLSASVGDRVTITCQASENIYGALNWYQRKPGKSPKLLIYGASNLATGMPSRFSGSGSGTDYTFTISSLQPEDIATYYCQQVLSSPYTFGGGTKLEIKR
B3: Antibody 14 (antibody, V domains shown)
VH: EVQLVETGGGLVQPKGSLKLSCAASGFSFNTNAMNWVRQAPGKGLEWVARIRSKSNNYATYYADSVKDRFTISRDDSQSMLYLQMNNLKTEDTAMYYCVSFLSLMDYWGQGTSVTVSS
VL: QIVLTQSPAIMSASPGEKVTMTCSASSSISYMHWYQQKPGTSPKRWIYDTSKLASGVPARFSGSGSGTSYSLTISSMEAEDAATYYCHQRSSYPWTFGGGTKLEIK
notes: Mouse-derived hybridoma antibody; also called mouse-derived antibody 14

Key:
mouse CEACAM5 = biological target: T1, mouse CEACAM5; test: ELISA on coated protein, OD450
In short: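 Plates coated overnight at 4 °C with mouse CEACAM5 protein, blocked with 2% BSA in PBS, then incubated with test antibody 1 h at 37 °C. Binding detected with HRP-conjugated goat anti-mouse IgG-Fc and TMB, absorbance read at 450 nm.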

[1] = biological target: T2, human CEACAM5-his (ACRO CE5-H5226); test: ELISA on coated human CEACAM5, OD450
Method: (§1) The binding activity of the antibodies to human CEACAM5, human CEACAM6, and human CEACAM6 (AB) proteins was detected by ELISA. The plate coated with proteins was incubated at 4° C. overnight, and the 96-well ELISA plate blocked with 2% PBS-BSA was added with the antibody to be detected and incubated at 37° C. for 1 h. After washing 3 times with PBS containing 0.05% Tween, the absorbance value of each well was read at wavelength 450 nm with the gradient-diluted mouse-derived candidate antibody as the primary antibody and anti-mouse-IgG-FC-HRP as the secondary antibody, and the absorbance value of each well was read at wavelength 450 nm after the TMB color development.

[2] = biological target: T3, human CEACAM6-his (ACRO CE6-H5223); test: ELISA on coated human CEACAM6, OD450
Method: as §1

[3] = biological target: T4, CEACAM6 on the surface of the tumor …; test: flow cytometry on HPAFII cells (Mean-FITC); the cells carry CEACAM5 and CEACAM6, signal not divided between the two
Method: (§2) The antibody to be tested was taken as the initial concentration of 200 nM and diluted 5-fold with 6 gradients. The HPAFII cells (From USTC […] FOR ADVANCED STUDIES) in the incubator were taken out, and the cell suspension was transferred to a 15 mL centrifuge tube, centrifuged, and counted by resuspension in PBS. A blank control group (Blank), a negative control group (NC), an experimental group, a positive control group and the irrelevant antibody group were kept. […] The cell suspension was spread in a 96-well plate according to about 3×10⁵ cells/well. Centrifugation (1000 rpm, 5 min) was performed, followed by washing with PBS, re-centrifugation, and repeated twice to remove media residues. The supernatant was discarded, 100 μL of primary antibody solution and irrelevant antibody solution were added to the experimental group and irrelevant antibody group, respectively, and the cells were resuspended and incubated at room temperature for 1 h. The blank group, and the negative control group were incubated with an equal amount of PBS.
(§3) After 1 h, PBS was added to wash twice. After the supernatant was discarded, 100 μL of fluorescent secondary antibody dilution (Mouse-derived secondary antibody from Abcam ab6785) was added to each sample group, except for the blank group which was added with 100 μL of PBS. After incubation at room temperature and protected from light for 0.5 h, centrifugation was performed and PBS added to wash the samples twice. After the supernatant was discarded, 120 μL of PBS was added to resuspend and sequentially flow cytometry was performed to detect the mean fluorescence intensity. The concentration of the antibody was logarithmically taken as the horizontal coordinate, and the Sigmoidaldose-response (VariableSlope) method (GraphPadPrism Software, GraphPadSoftware, San Diego, California) was chosen to perform a nonlinear regression to obtain the binding activity curves of the antibody on HPAFII cells.

[4] = biological target: T2, human CEACAM5-his (ACRO CE5-H5226); test: SPR (Biacore), antibody captured on CM5 chip, antigen as analyte, 1:1 model
Method: The CM5 sensor chip was activated at a flow rate of 10 μL/min for 420 seconds. The channel was then injected with 30 μg/mL of anti-rat Fc IgG in 10 mM NaAc (pH 4.5) at a flow rate of 10 μL/min. The chip was inactivated with 1 M ethanolamine-hydrochloric acid (GE) for 420 seconds at a flow rate of 10 μL/min.
Candidate antibodies in running buffer 1×HBS-EP+ (10 mM HEPES, 150 mM NaCl, 3 mM EDTA, 0.05% Tween 20, pH 7.4) were captured onto Fc2 with anti-rat Fc IgG at a flow rate of 10 μL/min. The 10 nM human CEACAM5-his protein or CEACAM-6-his or CEACAM6 (AB)-his protein and running buffer were sequentially injected into Fc1-Fc2 at a flow rate of […], bound for 180 seconds, and then dissociated for 3600 seconds. 10 mM glycine (pH 1.5) was injected as regeneration buffer after each dissociation.
Result plots for the reference channel Fc1 and the buffer channel were subtracted from the test result plots. The experimental data fit the 1:1 binding model. The molecular weight of 110 KDa was used to calculate the molar concentration of CEACAM5 protein, 55 KDa for human CEACAM6-his, and 55 KDa for human CEACAM6 (AB)-his.

[5] = biological target: T5, CEACAM5 on the surface of the tumor …; test: flow cytometry on HPAFII cells (Mean-FITC); the cells carry CEACAM5 and CEACAM6, signal not divided between the two
Method: as §2, §3

[6] = biological target: T2, human CEACAM5-his (ACRO CE5-H5226); test: ELISA on coated human CEACAM5, OD450; remark: listed apart in the source
In short: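 Plates coated overnight at 4 °C with antigen and blocked with 2% BSA in PBS received gradient-diluted mouse candidate antibodies for 1 h at 37 °C. Binding was detected with anti-mouse IgG Fc-HRP and TMB, read as OD450.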

[7] = biological target: T5, CEACAM5 on the surface of the tumor …; test: flow cytometry on HPAFII cells (Mean-FITC); the cells carry CEACAM5 and CEACAM6, signal not divided between the two; remark: listed apart in the source
Method: as §2
After 1 h, PBS was added to wash twice. […] After the supernatant was discarded, 120 μL of PBS was added to resuspend and sequentially flow cytometry was performed to detect the mean fluorescence intensity. […]

[8] = biological target: T5, CEACAM5 on the surface of the tumor …; test: as above; remark: listed apart in the source
Method: as §2, §3

[9] = biological target: T5, CEACAM5 on the surface of the tumor …; test: as above; remark: listed apart in the source
Method: as §2, §3

Binder | OD (mouse CEACAM5) [OD] | EC50 (read off the curve) [1] [µg/mL] | binding result [2] | binding result [3] | Kd [4] [nM] | EC50 (read off the curve) [5] [nM] | EC50 (read off the curve) [6] [µg/mL] | EC50 (read off the curve) [7] [µg/mL] | EC50 (read off the curve) [8] [nM] | EC50 (read off the curve) [9] [nM] | binding result [6]
B1 | 0.16 | ~0.04 | binds | binds |  |  |  |  |  |  | 
B2 |  | ~0.004 |  |  | 5.05 | ~3 | ~0.004 | ~0.6 | ~3 | ~2 | 
B3 |  |  | binds |  |  |  |  |  |  |  | binds
